Test results published in patent publication US20150344535A1, “NEUROTROPHIN-TYROSINE KINASE RECEPTOR SIGNALING” (THE UNIVERSITY OF QUEENSLAND, priority 2012, published 2015).

Columns and labels:
p75^FL [1] = target: T1, p75^FL (Rattus norvegicus, UniProt P07174); test: NGF-FITC binding by flow cytometry, p75^FL-transfected HEK293 cells
T1 construct: p75^FL—full-length p75^NTR; expressed in transfected cells; host or cells: HEK293
T1 sequence (P07174 30-425): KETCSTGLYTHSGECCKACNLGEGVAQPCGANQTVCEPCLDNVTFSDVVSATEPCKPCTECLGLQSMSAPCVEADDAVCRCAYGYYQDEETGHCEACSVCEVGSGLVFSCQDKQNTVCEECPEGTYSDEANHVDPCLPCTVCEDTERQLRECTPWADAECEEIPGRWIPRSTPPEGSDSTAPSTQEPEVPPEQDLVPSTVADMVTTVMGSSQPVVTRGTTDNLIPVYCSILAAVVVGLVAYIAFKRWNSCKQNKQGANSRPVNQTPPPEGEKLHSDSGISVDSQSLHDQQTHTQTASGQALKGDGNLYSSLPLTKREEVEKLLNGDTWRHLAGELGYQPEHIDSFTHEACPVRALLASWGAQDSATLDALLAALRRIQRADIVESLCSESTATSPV
Description: The NGF was conjugated to FITC by standard methods and detailed flow cytometry acquisition and analysis. For NGF-FITC conjugation 400 μg βNGF in 200 μl pH 8.5 NaHCO3 buffer was mixed with 5-10 μl of 10 mg/ml FITC in 100 μl DMSO for 10 hours at 4° C. on an orbital shaker set to 100 rpm. The excess FITC was removed by dialysis against 3 changes of 5 L of 10 mM Tris, 150 mM NaCl, 0.2% acetic acid, pH 8.2 for 24 hours at 4° C. Conjugate F/P characterization was determined by measuring absorbance at 280 nm and 495 nm according to manufacturer's instructions. Biological activity of the NGF-FITC conjugate was tested by performing PC12 cell neurite outgrowth assays unlabelled NGF, and comparing the levels of neuritogenesis. NGF-FITC conjugates were used within 4 weeks of synthesis.
For the flow cytometry NGF binding assays, fluorescence cell parameters of at least 20,000 events for PC12 cells and 100,000 events for HEK293 cells were acquired by flow cytometry list mode and measurements were performed on a single cell basis (with compensation for double event counting). Dead cells and debris were gated out of the analysis on the basis of forward scatter fluorescence, and mean, median and maximal fluorescence values of the gated cell populations were analysed using FACS Diva Software (Becton-Dickinson Biosciences) and FACS Express Software (Becton-Dickinson Biosciences).
Background fluorescence of HEK293 cells was non-transfected cells (±c29 or scrambled peptide treatment) treated with 26 nM NGF-FITC. For PC12 cells, the control population was cells that had not been treated with NGF-FITC. Analysis of real-time NGF-FITC receptor binding experiments was performed on 550,000-600,000 cells at 4° C. in serum free NB medium and binding kinetics were calculated from raw data files compressed to 50,000 binding events using FlowJo and MatLab Software. Data was plotted with the use of GraphPad Prism.
Only NGF-FITC preparations that promoted equivalent neurite outgrowth of PC12 cells to that of unlabelled NGF were used in binding experiments. To investigate NGF binding, PC12 or transfected HEK293 cells were serum starved for 4 hours, harvested, washed with Dulbecco's Modified Eagle Medium (DMEM), and counted. When used, c29 or scrambled peptide were added to cultures for the third hour of the serum starvation procedure. 1×10^7 cells/ml suspended in 500 μl of serum-free DMEM were incubated with 26 nM NGF-FITC on ice for 60 minutes before analysis. For binding competition assays, following 1 hour in NGF-FITC, cells were washed with ice-cold PBS containing 0.1% normal bovine serum and incubated on ice with unlabeled NGF at concentrations ranging from 100 pM to 10 μM for 30 minutes, then washed twice in PBS before being analysed on a BD Flow Cytometer FACS Scan (Becton-Dickinson).
To determine association rates, cells were harvested as above following serum starvation and peptide treatment, and were resuspended in 3 ml of serum-free Neurobasal (NB) medium containing […] (Invitrogen) and […] nonessential amino acids, prior to analysis on the flow cytometer. Cells were analysed for 30 seconds prior to the addition of 26 nM NGF-FITC, and then for 30 minutes in real time with an analysis rate of 200-300 events/sec.

[2] = system: C7-8 spinal cord motor neurons; test: Motor neuron axotomy (median and ulnar nerve) in neonatal rat; format: in vivo; conditions: P4 rat pups, peptide in gel foam at axonal stump, 5-day recovery, relative to contralateral side
Description: Median and ulnar nerve axotomy was performed on 4 day-old Wistar rat pups as previously described (Cheema et al., 1996). Peptides (c29 and vehicle only; 100 nM) were applied via a 1 mm^3 cube of pluronic gel foam that was sutured to the proximal axonal stump (Cheema et al., 1996). After 5 days the animals were perfused with a 4% solution of paraformaldehyde in phosphate buffer. Cervical spinal cords were removed, after which serial sections were cut at 40 μm, mounted onto gelatin-coated slides and stained in 0.1% cresyl violet. Details of the counting procedure have been described previously (Cheema et al., 1994).
We next investigated whether c29 could prevent motor neuron death following growth factor withdrawal in vivo using a neonatal rat axotomy model. Following unilateral median and ulnar nerve transections of postnatal day 4 (P4) rat pups, c29 or the vehicle protein transduction domain (PTD4) was applied to the proximal site of transaction in a small cube of gel foam. After a 5-day recovery, the number of surviving C7-8 spinal cord motor neurons relative to the contralateral side was determined by histological counts. Such an axotomy causes 50% of the ipsilateral motor neurons to die (Cheema et al., 1996), with control peptide treatment having no effect on this degree of cell death (FIG. 7E, F). […]

[3] = system: TrkB-expressing cortical neurons; test: Western blot of phosphorylated Erk1/2 in BDNF-treated cortical neurons; format: cell-based; conditions: E16 cultured cortical neurons, 15 minutes after BDNF treatment
p75^FL [4] = test: Production of endogenous p75^CTF or p75^ICD fragments in p75^FL-transfected HEK293 cells; format: cell-based; conditions: vs untreated cells, data not shown
[5] = 26 nM NGF-FITC 60 minutes, c.f. p75^FL alone

“KRWNSCKQNKQGANSRPVNQTPPPEGEKL (c29- Fragment of p75ICD) [29 amino acid peptide of the p75NTR juxtamembrane Chopper domain; delivered to cells linked to PTD4 or disulfide-linked carrier]” was tested, and the “% of cell population with FITC above background” value (p75^FL [1]; [5]) was 100.5 ± 14.2%, the “Maximal fluorescence per cell of the population” value (p75^FL [1]; [5]) was 98.7 ± 4.3% and the “Mean fluorescence per FITC-positive cell” value (p75^FL [1]; [5]) was 105.2 ± 3.6%. The Median population fluorescence (p75^FL [1]; [5]) was 103.8 ± 11.2%, the “half time of NGF-FITC binding” value (p75^FL [1]; 26 nM NGF-FITC, cells treated with c29) was 7.1 min and the “fluorescence profile of the population” value (p75^FL [1]; pre-treated with c29, NGF-FITC) was “did not change”. For the same sequence, the “axotomised neurons that died” value [2] was 12%, the “phosphorylated Erk1/2 in response to BDNF” value [3] was “enhanced trophic signaling” and the “rate of production of endogenous p75^CTF or p75^ICD fragments” value (p75^FL [4]) was “did not differ significantly”.
